Data taken from US20220062341A1 (KIRIN, published 2022).

B1: modified TCR consisting of β2 and α5 (TCR)
TCR alpha: LDMRSMDFKSNSAVAWSNKSDFACANAFNNSIIPEDTFFPSPESSCDVKLVEKSFETDTNLNFQNLSVIGFRILLLKVAGFNLLMTLRLWSS
TCR beta: ATLVCLATGFYPDHVELSWWVNGKEVHSGVSTDPQPLKEQPALNDSRYCLSSRLRVSATFWQNPRNHFRCQVQFYGLSENDEWTQDRAKPVTQIVSAEAWGRADCGFTSESYQQGVLSATILYEILLGKATLYAVLVSALVLMAMVKRKDSRG
B2: modified TCR consisting of β2 and α10 (TCR)
TCR alpha: IPEDTFFPSPESSCDVKLVEKSFETDTNLNFQNLSVIGFRILLLKVAGFNLLMTLRLWSS
TCR beta: ATLVCLATGFYPDHVELSWWVNGKEVHSGVSTDPQPLKEQPALNDSRYCLSSRLRVSATFWQNPRNHFRCQVQFYGLSENDEWTQDRAKPVTQIVSAEAWGRADCGFTSESYQQGVLSATILYEILLGKATLYAVLVSALVLMAMVKRKDSRG
B3: modified TCR consisting of β2 and α8 (TCR)
TCR alpha: CANAFNNSIIPEDTFFPSPESSCDVKLVEKSFETDTNLNFQNLSVIGFRILLLKVAGFNLLMTLRLWSS
TCR beta: ATLVCLATGFYPDHVELSWWVNGKEVHSGVSTDPQPLKEQPALNDSRYCLSSRLRVSATFWQNPRNHFRCQVQFYGLSENDEWTQDRAKPVTQIVSAEAWGRADCGFTSESYQQGVLSATILYEILLGKATLYAVLVSALVLMAMVKRKDSRG
B4: modified TCR consisting of β2 and α6 (TCR)
TCR alpha: KSNSAVAWSNKSDFACANAFNNSIIPEDTFFPSPESSCDVKLVEKSFETDTNLNFQNLSVIGFRILLLKVAGFNLLMTLRLWSS
TCR beta: ATLVCLATGFYPDHVELSWWVNGKEVHSGVSTDPQPLKEQPALNDSRYCLSSRLRVSATFWQNPRNHFRCQVQFYGLSENDEWTQDRAKPVTQIVSAEAWGRADCGFTSESYQQGVLSATILYEILLGKATLYAVLVSALVLMAMVKRKDSRG
B5: modified TCR consisting of β2 and α7 (TCR)
TCR alpha: SNKSDFACANAFNNSIIPEDTFFPSPESSCDVKLVEKSFETDTNLNFQNLSVIGFRILLLKVAGFNLLMTLRLWSS
TCR beta: ATLVCLATGFYPDHVELSWWVNGKEVHSGVSTDPQPLKEQPALNDSRYCLSSRLRVSATFWQNPRNHFRCQVQFYGLSENDEWTQDRAKPVTQIVSAEAWGRADCGFTSESYQQGVLSATILYEILLGKATLYAVLVSALVLMAMVKRKDSRG
B6: modified TCR consisting of β2 and α9 (TCR)
TCR alpha: FNNSIIPEDTFFPSPESSCDVKLVEKSFETDTNLNFQNLSVIGFRILLLKVAGFNLLMTLRLWSS
TCR beta: ATLVCLATGFYPDHVELSWWVNGKEVHSGVSTDPQPLKEQPALNDSRYCLSSRLRVSATFWQNPRNHFRCQVQFYGLSENDEWTQDRAKPVTQIVSAEAWGRADCGFTSESYQQGVLSATILYEILLGKATLYAVLVSALVLMAMVKRKDSRG
B7: modified TCR consisting of β7 and α9 (TCR)
TCR alpha: FNNSIIPEDTFFPSPESSCDVKLVEKSFETDTNLNFQNLSVIGFRILLLKVAGFNLLMTLRLWSS
TCR beta: RLRVSATFWQNPRNHFRCQVQFYGLSENDEWTQDRAKPVTQIVSAEAWGRADCGFTSESYQQGVLSATILYEILLGKATLYAVLVSALVLMAMVKRKDSRG
B8: modified TCR consisting of β7 and α10 (TCR)
TCR alpha: IPEDTFFPSPESSCDVKLVEKSFETDTNLNFQNLSVIGFRILLLKVAGFNLLMTLRLWSS
TCR beta: RLRVSATFWQNPRNHFRCQVQFYGLSENDEWTQDRAKPVTQIVSAEAWGRADCGFTSESYQQGVLSATILYEILLGKATLYAVLVSALVLMAMVKRKDSRG

The binders below were run against CD3 subunits (CD3E, CD3G, CD3D, CD3Z) (human, UniProt P07766 23-207; P09693 23-182; P04234 22-171; P20963 22-164) (assay: cell-based or functional assay).
Chain of CD3 subunits (CD3E, CD3G, CD3D, CD3Z) (P07766 23-207, chain 1 of 4): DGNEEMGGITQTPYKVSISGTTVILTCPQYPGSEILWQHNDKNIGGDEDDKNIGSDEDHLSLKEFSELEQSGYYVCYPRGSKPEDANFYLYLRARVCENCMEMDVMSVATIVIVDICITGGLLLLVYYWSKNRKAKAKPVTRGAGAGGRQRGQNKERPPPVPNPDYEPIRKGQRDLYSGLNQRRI
Chain of CD3 subunits (CD3E, CD3G, CD3D, CD3Z) (P09693 23-182, chain 2 of 4): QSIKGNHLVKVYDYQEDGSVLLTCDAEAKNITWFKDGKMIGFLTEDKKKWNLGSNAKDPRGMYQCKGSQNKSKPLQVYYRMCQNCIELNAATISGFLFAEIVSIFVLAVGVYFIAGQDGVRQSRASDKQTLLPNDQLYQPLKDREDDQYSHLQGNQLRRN
Chain of CD3 subunits (CD3E, CD3G, CD3D, CD3Z) (P04234 22-171, chain 3 of 4): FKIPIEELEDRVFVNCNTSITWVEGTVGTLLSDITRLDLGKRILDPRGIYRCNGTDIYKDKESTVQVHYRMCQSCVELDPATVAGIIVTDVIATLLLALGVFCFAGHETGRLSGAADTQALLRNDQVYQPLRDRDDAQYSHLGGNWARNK
Chain of CD3 subunits (CD3E, CD3G, CD3D, CD3Z) (P20963 22-164, chain 4 of 4): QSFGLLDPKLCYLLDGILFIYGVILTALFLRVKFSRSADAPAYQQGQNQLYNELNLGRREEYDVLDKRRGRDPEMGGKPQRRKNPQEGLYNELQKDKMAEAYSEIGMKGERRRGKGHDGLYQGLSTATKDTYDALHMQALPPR

CD3-recruiting activity (CD3-positive proportion, N=3), CD3-stably expressing 293T cells, ≥ 20%:
B1
B2
B3
B4
B5
B6
B7
B8
